T1: Plasmodium falciparum Hsp70-Hsp90 organising protein (PfHop) (Plasmodium falciparum), Q8ILC1
T1 chain: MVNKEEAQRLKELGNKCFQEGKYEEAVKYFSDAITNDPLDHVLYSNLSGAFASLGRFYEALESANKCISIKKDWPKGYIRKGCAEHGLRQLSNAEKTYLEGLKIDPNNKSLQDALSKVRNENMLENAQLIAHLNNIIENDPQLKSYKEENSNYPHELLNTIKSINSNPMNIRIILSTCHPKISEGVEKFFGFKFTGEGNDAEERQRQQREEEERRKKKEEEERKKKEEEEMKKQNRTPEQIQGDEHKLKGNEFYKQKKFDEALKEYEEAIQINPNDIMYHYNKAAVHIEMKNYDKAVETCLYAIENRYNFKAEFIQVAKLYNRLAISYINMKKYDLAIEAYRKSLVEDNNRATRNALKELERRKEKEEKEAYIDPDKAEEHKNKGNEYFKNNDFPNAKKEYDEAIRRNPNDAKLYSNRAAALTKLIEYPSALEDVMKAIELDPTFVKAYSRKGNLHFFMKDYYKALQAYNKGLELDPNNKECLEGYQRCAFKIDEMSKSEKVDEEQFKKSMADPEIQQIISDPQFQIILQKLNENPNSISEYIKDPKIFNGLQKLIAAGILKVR


Legend:
[1] = target: T1, Plasmodium falciparum Hsp70-Hsp90 …; assay: SPR; ProteOn XPR36, GLC chip; PfHop immobilised by amine coupling, PfHop as analyte (125-2000 nM); self-association, step not told; 25 C; PBS-Tween with 20 mM EDTA, pH 7.4; no nucleotide; conditions: remark: other sources report otherwise
[2] = target: T1, Plasmodium falciparum Hsp70-Hsp90 …; assay: SPR; ProteOn XPR36, GLC chip; PfHop immobilised by amine coupling, PfHop as analyte (125-2000 nM); self-association, step not told; 25 C; PBS-Tween with 20 mM EDTA, pH 7.4; with 5 mM ADP; conditions: remark: other sources report otherwise
[3] = target: T1, Plasmodium falciparum Hsp70-Hsp90 …; assay: SPR; ProteOn XPR36, GLC chip; PfHop immobilised by amine coupling, PfHop as analyte (125-2000 nM); self-association, step not told; 25 C; PBS-Tween with 20 mM EDTA, pH 7.4; with 5 mM ATP; conditions: remark: other sources report otherwise
[4] = target: Plasmodium falciparum Hsp70 (PfHsp70-1), full length, recombinant, his-tagged (Plasmodium falciparum, UniProt Q8IB24 1-677); assay: far-Western, overlay or dot blot; PfHsp70-1 (25, 37.5, 50 μg/mL) resolved by SDS-PAGE, blotted, denatured and renatured with urea (8 M-0 M); overlaid with PfHop in protein-binding buffer (100 mM NaCl, 20 mM Tris pH 7.6, 0.5 mM EDTA, 10% glycerol, 0.1% Tween-20, 2% skim milk, 1 mM DTT) overnight at 4°C; no nucleotide, 5 μM ADP or 5 μM ATP; detected with α-PfHop; conditions: both partners purified

Binder | Kd [1] [nM] | koff [1] [s⁻¹] | kon [1] [M⁻¹ s⁻¹] | Kd [2] [nM] | koff [2] [s⁻¹] | kon [2] [M⁻¹ s⁻¹] | Kd [3] [nM] | koff [3] [s⁻¹] | kon [3] [M⁻¹ s⁻¹] | binding result [4]
Plasmodium falciparum Hsp70-Hsp90 organising protein (PfHop), Q8ILC1 1-564 (natural protein) MVNKEEAQRLKELGNKCFQEGKYEEAVKYFSDAITNDPLDHVLYSNLSGAFASLGRFYEALESANKCISIKKDWPKGYIRKGCAEHGLRQLSNAEKTYLEGLKIDPNNKSLQDALSKVRNENMLENAQLIAHLNNIIENDPQLKSYKEENSNYPHELLNTIKSINSNPMNIRIILSTCHPKISEGVEKFFGFKFTGEGNDAEERQRQQREEEERRKKKEEEERKKKEEEEMKKQNRTPEQIQGDEHKLKGNEFYKQKKFDEALKEYEEAIQINPNDIMYHYNKAAVHIEMKNYDKAVETCLYAIENRYNFKAEFIQVAKLYNRLAISYINMKKYDLAIEAYRKSLVEDNNRATRNALKELERRKEKEEKEAYIDPDKAEEHKNKGNEYFKNNDFPNAKKEYDEAIRRNPNDAKLYSNRAAALTKLIEYPSALEDVMKAIELDPTFVKAYSRKGNLHFFMKDYYKALQAYNKGLELDPNNKECLEGYQRCAFKIDEMSKSEKVDEEQFKKSMADPEIQQIISDPQFQIILQKLNENPNSISEYIKDPKIFNGLQKLIAAGILKVR | 1.57 | 0.000359 | 228000 | 7.85 | 0.000464 | 59100 | 5.18 | 0.000329 | 63500 | –
Plasmodium falciparum Hsp70-Hsp90 organising protein (PfHop), recombinant, his-tagged (natural protein, UniProt Q8ILC1 1-564, looked up) MVNKEEAQRLKELGNKCFQEGKYEEAVKYFSDAITNDPLDHVLYSNLSGAFASLGRFYEALESANKCISIKKDWPKGYIRKGCAEHGLRQLSNAEKTYLEGLKIDPNNKSLQDALSKVRNENMLENAQLIAHLNNIIENDPQLKSYKEENSNYPHELLNTIKSINSNPMNIRIILSTCHPKISEGVEKFFGFKFTGEGNDAEERQRQQREEEERRKKKEEEERKKKEEEEMKKQNRTPEQIQGDEHKLKGNEFYKQKKFDEALKEYEEAIQINPNDIMYHYNKAAVHIEMKNYDKAVETCLYAIENRYNFKAEFIQVAKLYNRLAISYINMKKYDLAIEAYRKSLVEDNNRATRNALKELERRKEKEEKEAYIDPDKAEEHKNKGNEYFKNNDFPNAKKEYDEAIRRNPNDAKLYSNRAAALTKLIEYPSALEDVMKAIELDPTFVKAYSRKGNLHFFMKDYYKALQAYNKGLELDPNNKECLEGYQRCAFKIDEMSKSEKVDEEQFKKSMADPEIQQIISDPQFQIILQKLNENPNSISEYIKDPKIFNGLQKLIAAGILKVR | – | – | – | – | – | – | – | – | – | binds
